# Laboratory results taken from patent publication US20210187069A1.
# Residue numbers refer to the chain shown, from its start. Numbers in names are those of the source.
# T1: wildtype SARM1 (endogenous, in wildtype mouse dorsal root ganglion neurons) (mouse) (UniProt Q6PDS3)
# T1 sequence (looked up): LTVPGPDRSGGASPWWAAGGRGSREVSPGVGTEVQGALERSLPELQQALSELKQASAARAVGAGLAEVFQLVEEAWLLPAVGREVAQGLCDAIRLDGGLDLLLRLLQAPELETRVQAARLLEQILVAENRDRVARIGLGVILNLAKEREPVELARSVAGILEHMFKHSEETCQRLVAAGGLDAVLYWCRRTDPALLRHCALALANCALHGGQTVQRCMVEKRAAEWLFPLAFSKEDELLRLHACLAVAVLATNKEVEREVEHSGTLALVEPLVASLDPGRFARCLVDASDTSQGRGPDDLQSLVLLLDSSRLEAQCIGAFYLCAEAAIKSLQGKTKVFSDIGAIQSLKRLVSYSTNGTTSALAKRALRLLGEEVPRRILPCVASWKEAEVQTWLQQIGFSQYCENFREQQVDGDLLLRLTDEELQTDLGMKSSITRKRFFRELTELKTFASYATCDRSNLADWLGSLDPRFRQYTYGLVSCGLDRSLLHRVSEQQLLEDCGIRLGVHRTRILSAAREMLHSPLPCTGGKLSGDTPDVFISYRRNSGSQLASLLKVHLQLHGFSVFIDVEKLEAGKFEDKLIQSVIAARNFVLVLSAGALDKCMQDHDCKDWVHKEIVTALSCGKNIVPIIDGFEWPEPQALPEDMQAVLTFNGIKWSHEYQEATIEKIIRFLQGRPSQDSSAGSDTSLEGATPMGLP
# B1: SARM1-K597E (enzyme, not shown: large carriers)
# chain: LAVPGPDGGGGTGPWWAAGGRGPREVSPGAGTEVQDALERALPELQQALSALKQAGGARAVGAGLAEVFQLVEEAWLLPAVGREVAQGLCDAIRLDGGLDLLLRLLQAPELETRVQAARLLEQILVAENRDRVARIGLGVILNLAKEREPVELARSVAGILEHMFKHSEETCQRLVAAGGLDAVLYWCRRTDPALLRHCALALGNCALHGGQAVQRRMVEKRAAEWLFPLAFSKEDELLRLHACLAVAVLATNKEVEREVERSGTLALVEPLVASLDPGRFARCLVDASDTSQGRGPDDLQRLVPLLDSNRLEAQCIGAFYLCAEAAIKSLQGKTKVFSDIGAIQSLKRLVSYSTNGTKSALAKRALRLLGEEVPRPILPSVPSWKEAEVQTWLQQIGFSKYCESFREQQVDGDLLLRLTEEELQTDLGMKSGITRKRFFRELTELKTFANYSTCDRSNLADWLGSLDPRFRQYTYGLVSCGLDRSLLHRVSEQQLLEDCGIHLGVHRARILTAAREMLHSPLPCTGGKPSGDTPDVFISYRRNSGSQLASLLKVHLQLHGFSVFIDVEELEAGKFEDKLIQSVMGARNFVLVLSPGALDKCMQDHDCKDWVHKEIVTALSCGKNIVPIIDGFEWPEPQVLPEDMQAVLTFNGIKWSHEYQEATIEKIIRFLQGRSSRDSSAGSDTSLEGAAPMGPTATT
# B2: SARM1-K193R/H194A/H685A (SARM1-compound dominant negative) (enzyme, not shown: large carriers)
# chain: B1 chain with K166R, H167A, E570K, H658A
# B3: SARM1-K193R/H685A (enzyme, not shown: large carriers)
# chain: B1 chain with K166R, E570K, H658A
# B4: SARM1-K193R/E642A (enzyme, not shown: large carriers)
# chain: B1 chain with K166R, E570K, E615A
# B5: SARM1-deltaTIR (enzyme, not shown: large carriers)
# chain: MLAVPGPDGGGGTGPWWAAGGRGPREVSPGAGTEVQDALERALPELQQALSALKQAGGARAVGAGLAEVFQLVEEAWLLPAVGREVAQGLCDAIRLDGGLDLLLRLLQAPELETRVQAARLLEQILVAENRDRVARIGLGVILNLAKEREPVELARSVAGILEHMFKHSEETCQRLVAAGGLDAVLYWCRRTDPALLRHCALALGNCALHGGQAVQRRMVEKRAAEWLFPLAFSKEDELLRLHACLAVAVLATNKEVEREVERSGTLALVEPLVASLDPGRFARCLVDASDTSQGRGPDDLQRLVPLLDSNRLEAQCIGAFYLCAEAAIKSLQGKTKVFSDIGAIQSLKRLVSYSTNGTKSALAKRALRLLGEEVPRPILPSVPSWKEAEVQTWLQQIGFSKYCESFREQQVDGDLLLRLTEEELQTDLGMKSGITRKRFFRELTELKTFANYSTCDRSNLADWLGSLDPRFRQYTYGLVSCGLDRSLLHRVSEQQLLEDCGIHLGVHRARILTAAREMLHSPLPCTGGKPSGDATT
# B6: SARM1-H685A/E642A (enzyme, not shown: large carriers)
# chain: B1 chain with E570K, E615A, H658A
# B7: SARM1 D627K (enzyme, not shown: large carriers)
# chain: B1 chain with E570K, D600K
# B8: SARM1 K628D (enzyme, not shown: large carriers)
# chain: B1 chain with E570K, K601D
# B9: SARM1 C629S (enzyme, not shown: large carriers)
# chain: B1 chain with E570K, C602S
# B10: SARM1-H685A (enzyme, not shown: large carriers)
# chain: B1 chain with E570K, H658A
# B11: SARM1-H685Y (enzyme, not shown: large carriers)
# chain: B1 chain with E570K, H658Y
# B12: SARM1-K193R (enzyme, not shown: large carriers)
# chain: B1 chain with K166R, E570K
# B13: SARM1-E642A (enzyme, not shown: large carriers)
# chain: B1 chain with E570K, E615A
# Target: T1, wildtype SARM1 (endogenous, in wildtype mouse dorsal root ganglion neurons) (mouse)
# Experiment: cell-based or functional assay
binder,measurement,value
B1,axon degeneration (degeneration index) after axotomy of wildtype DRG neurons,36 h
B2,axon degeneration (degeneration index) and TMRM-positive mitochondria after axotomy of wildtype DRG neurons,> 96 h
same,"axon degeneration after 40 nM vincristine, wildtype DRG neurons",> 120 h
same,"axon degeneration and TMRM-positive mitochondria after 40 nM vincristine, wildtype DRG neurons",> 96 h
B3,axon degeneration after axotomy of wildtype DRG neurons,> 120 h
B4,"axon degeneration after 40 nM vincristine, wildtype DRG neurons",> 120 h
B5,axon degeneration (degeneration index) after axotomy of wildtype DRG neurons,36 h
B6,"axon degeneration after 40 nM vincristine, wildtype DRG neurons",> 120 h
B7,axon degeneration after axotomy,24 h
B8,axon degeneration after axotomy,24 h
B9,axon degeneration after axotomy,24 h
B10,axon degeneration (degeneration index) after axotomy of wildtype DRG neurons,72 h
B11,axon degeneration (degeneration index) after axotomy of wildtype DRG neurons,72 h
B12,axon degeneration (degeneration index) after axotomy of wildtype DRG neurons,72 h
B13,mitochondrial membrane potential (TMRM fluorescence) in severed axons of wildtype DRG neurons,24 h
